# Results reported in publication doi:10.1101/2024.04.19.590217 (bioRxiv, 2024).
# Biological target: the molecule itself
# Test: cryo-EM structure
protein,measurement,value
Simian Virus 40 (SV40) Large Tumour Antigen (LTag) (enzyme) MDKVLNREESLQLMDLLGLERSAWGNIPLMRKAYLKKCKEFHPDKGGDEEKMKKMNTLYKKMEDGVKYAHQPDFGGFWDATEIPTYGTDEWEQWWNAFNEENLFCSEEMPSSDDEATADSQHSTPPKKKRKVEDPKDFPSELLSFLSHAVFSNRTLACFAIYTTKEKAALLYKKIMEKYSVTFISRHNSYNHNILFFLTPHRHRVSAINNYAQKLCTFSFLICKGVNKEYLMYSALTRDPFSVIEESLPGGLKEHDFNPEEAEETKQVSWKLVTEYAMETKCDDVLLLLGMYLEFQYSFEMCLKCIKKEQPSHYKYHEKHYANAAIFADSKNQKTICQQAVDTVLAKKRVDSLQLTREQMLTNRFNDLLDRMDIMFGSTGSADIEEWMAGVAWLHCLLPKMDSVVYDFLKCMVYNIPKKRYWLFKGPIDSGKTTLAAALLELCGGKALNVNLPLDRLNFELGVAIDQFLVVFEDVKGTGGESRDLPSGQGINNLDNLRDYLDGSVKVNLEKKHLNKRTQIFPPGIVTMNEYSVPKTLQARFVKQIDFRPKDYLKHCLERSEFLLEKRIIQSGIALLLMLIWYRPVAEFAQSIQSRIVEWKERLDKEFSLSVYQKMKFNVAMGIGVLDWLRNSDDDDEDSQENADKNEDGGEKNMEDSGHETGIDSQSQGSFQAPQSSQSVHDHNQPYHICRGFTCFKKPPTPPPEPET,stoichiometry N,6
